{"source": "paper PMC7325957", "biological_target": "NttE from L. pneumophila strain 130b, His6-tagged (residues 1 to 269; minus its N-terminal signal sequence) (Legionella pneumophila strain 130b)", "assay": "SEC-SAXS", "data": [{"substance": "NttE from L. pneumophila strain 130b, His6-tagged (residues 1 to 269; minus its N-terminal signal sequence) (natural protein)", "values": [{"measurement": "stoichiometry N", "result": 2}]}]}
